Test results: US10772928B2, “Modulation and detection of a neuronal alternative splicing regulatory network for treatment and diagnosis of neurological disorders” (The Governing Council of the University of Toronto, priority 2014, dated 2020)

T1: nSR100 (Mus musculus, UniProt Q8BKA3)
T1 construct: host or cells: mouse N2A cells
T1 sequence (Q8BKA3 1-608): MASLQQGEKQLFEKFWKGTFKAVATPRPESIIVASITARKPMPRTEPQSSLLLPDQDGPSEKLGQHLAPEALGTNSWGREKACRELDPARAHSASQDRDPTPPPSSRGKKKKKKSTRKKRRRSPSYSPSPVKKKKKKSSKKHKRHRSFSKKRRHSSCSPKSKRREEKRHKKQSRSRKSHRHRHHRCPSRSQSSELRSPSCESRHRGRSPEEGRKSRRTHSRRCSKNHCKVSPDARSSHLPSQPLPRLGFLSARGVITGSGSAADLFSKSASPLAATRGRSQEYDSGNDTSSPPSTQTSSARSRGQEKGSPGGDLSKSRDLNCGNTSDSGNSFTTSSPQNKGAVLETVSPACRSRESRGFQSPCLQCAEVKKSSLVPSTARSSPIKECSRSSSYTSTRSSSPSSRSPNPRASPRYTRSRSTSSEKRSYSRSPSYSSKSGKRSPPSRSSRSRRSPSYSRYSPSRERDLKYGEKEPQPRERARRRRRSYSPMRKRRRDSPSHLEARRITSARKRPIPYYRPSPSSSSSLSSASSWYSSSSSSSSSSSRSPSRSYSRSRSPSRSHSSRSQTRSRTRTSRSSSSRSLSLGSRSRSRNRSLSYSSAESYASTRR


Target: T1, nSR100
Assay: AP-MS nSR100 interaction partners from mouse N2A cells (Table 5)
Format: binding
Conditions: for AvgP (average of the SAINT scores) / MaxP (maximal SAINT score): bait Srrm4; for FoldChange between the prey Avg spectra of the bait and control purifications: bait Srrm4, 0.1 added to prevent division by 0; for AvgSpec (average number of spectra per replicate): bait Srrm4, 2 replicates; for Spectra (number of spectra for the prey in the purification of the bait): AP-MS; for SpecSum: bait Srrm4, sum of spectra over 2 replicates
[1] = bait Srrm4, biological replicate 1 (first number of the cell)
[2] = bait Srrm4, biological replicate 2 (second number of the cell)

From the text: By applying affinity purification coupled to mass-spectrometry (AP-MS), several interaction nSR100 partner proteins were detected that provide insight into mechanisms of post-translational regulation of nSR100 levels.

AvgP (average of the SAINT scores)	MaxP (maximal SAINT score)	FoldChange between the prey Avg spectra of the bait and control purifications	AvgSpec (average number of spectra per replicate)	Spectra (number of spectra for the prey in the purification of the bait) [1]	Spectra (number of spectra for the prey in the purification of the bait) [2]	SpecSum	Molecule
1	1	85	8.5	6	11	17	Cwc27 (protein, UniProt Q3TKY6 2-469, looked up) Spliceosome-associated …: SNIYIQEPPTNGKVLLKTTAGDIDIELWSKEAPKACRNFIQLCLEAYYDNTIFHRVVPGFIVQGGDPTGTGTGGESIYGAPFKDEFHSRLRFNRRGLVAMANAGPHDNGSQFFFTLGRADELNNKHTIFGKVTGDTVYNMLRLTEVDIDDEERPRNPHRIKSCEVLFNPFDDITPREIKKPKNEKPEEEVKKLKPKGTKNFSLLSFGEEAEEEEEEVNRVSQSMKGRSKSSHDLLKDDPHLSSVPAVESEKDDATGDLEDDGEDDSAERDEYMEDDEKNLMRERIAKRLKKDASASVKSAGDGEKKPASRSEELRKEARQLKRELLAAKQKKETAIKVEEGREEEEAAPDGAVAEYRREKQKYEALRKQQPKKGTSREDQTLALLSQFKSKLTQAITETPENSVPEAEVEDDEGWMSHVLQFEDKTRKVKDASMQDSDTFEIYDPRNPVNKRRREESKKLLREKKERR
1	1	430	43	43|43	43|43	86	Plk1 (protein, UniProt Q07832 1-603, looked up) Serine/threonine-protein …: MNAAAKAGKLARAPADLGKGGVPGDAVPGAPVAAPLAKEIPEVLVDPRSRRQYVRGRFLGKGGFAKCFEISDADTKEVFAGKIVPKSLLLKPHQKEKMSMEISIHRSLAHQHVVGFHDFFEDSDFVFVVLELCRRRSLLELHKRRKALTEPEARYYLRQIVLGCQYLHRNQVIHRDLKLGNLFLNEDLEVKIGDFGLATKVEYEGERKKTLCGTPNYIAPEVLSKKGHSFEVDVWSIGCIMYTLLVGKPPFETSCLKETYLRIKKNEYSIPKHINPVAASLIQKMLQTDPTARPTIHELLNDEFFTSGYIPARLPITCLTIPPRFSIAPSSLDPSSRKPLKVLNKGVENPLPDRPREKEEPVVRETNEAIECHLSDLLQQLTSVNASKPSERGLVRQEEAEDPACIPIFWVSKWVDYSDKYGLGYQLCDNSVGVLFNDSTRLILYNDGDSLQYIERDGTESYLTVSSHPNSLMKKITLLNYFRNYMSEHLLKAGANITPREGDELARLPYLRTWFRTRSAIILHLSNGTVQINFFQDHTKLILCPLMAAVTYINEKRDFQTYRLSLLEEYGCCKELASRLRYARTMVDKLLSSRSASNRLKAS
1	1	7.2	54	46	62	108	Ap2a1 (protein, UniProt P17426 1-977, looked up) AP-2 complex subunit alpha-1: MPAVSKGDGMRGLAVFISDIRNCKSKEAEIKRINKELANIRSKFKGDKALDGYSKKKYVCKLLFIFLLGHDIDFGHMEAVNLLSSNKYTEKQIGYLFISVLVNSNSELIRLINNAIKNDLASRNPTFMCLALHCIANVGSREMGEAFAADIPRILVAGDSMDSVKQSAALCLLRLYKASPDLVPMGEWTARVVHLLNDQHMGVVTAAVSLITCLCKKNPDDFKTCISLAVSRLSRIVSSASTDLQDYTYYFVPAPWLSVKLLRLLQCYPPPEDAAVKGRLVECLETVLNKAQEPPKSKKVQHSNAKNAILFETISLIIHYDSEPNLLVRACNQLGQFLQHRETNLRYLALESMCTLASSEFSHEAVKTHIDTVINALKTERDVSVRQRAADLLYAMCDRSNAKQIVSEMLRYLETADYAIREEIVLKVAILAEKYAVDYSWYVDTILNLIRIAGDYVSEEVWYRVLQIVTNRDDVQGYAAKTVFEALQAPACHENMVKVGGYILGEFGNLIAGDPRSSPPVQFSLLHSKFHLCSVATRALLLSTYIKFINLFPETKATIQGVLRAGSQLRNADVELQQRAVEYLTLSSVASTDVLATVLEEMPPFPERESSILAKLKRKKGPGAASALDDSRRDTSSNDINGGVEPTPSTVSTPSPSADLLGLRAAPPPAAPPAPVGGNLLVDVFSDGPTAQPSLGPTPEEAFLSELEPPAPESPMALLADPAPAADPGPEDIGPPIPEADELLNKFVCKNSGVLFENQLLQIGVKSEFRQNLGRMYLFYGNKTSVQFQNFLPTVVHPGDLQTQLAVQTKRVAAQVDGGAQVQQVLNIECLRDFLTPPLLSVRFRYGGTAQSLTLKLPVTINKFFQPTEMAAQDFFQRWKQLSLPLQEAQKIFKANHPMDAEVTKAKLLGFGSALLDNVDPNPENFVGAGIIQTKALQVGCLLRLEPNAQAQMYRLTLRTSKEPVSRHLCELLAQQF
1	1	40	4	5	3	8	Tfip11 (protein, UniProt Q9ERA6 1-838, looked up) Tuftelin-interacting protein …: MSLSHLYRDGEGHLDDDDDDERENFEITDWDLQNEFNPNRQRHWQTKEEATYGVWAERDSDEERPSFGGKRARDYSAPVNFISAGLKKGAAEEADSEDSDAEEKPVKQEDFPKDLGPKKLKTGGNFKPSQKGFSGGTKSFMDFGSWERHTKGIGQKLLQKMGYVPGRGLGKNAQGIINPIEAKQRKGKGAVGAYGSERTTQSLQDFPVADSEEEAEEEFQKELSQWRKDPSGSKKKPKYSYKTVEELKAKGRVSKKLTAPQKELSQVKVIDMTGREQKVYYSYSQISHKHSVPDEGVPLLAQLPPTAGKEARMPGFALPELEHNLQLLIERTEQEIIQSDRQLQYERDMVVSLSHELEKTAEVLAHEERVISNLSKVLALVEECERRMQPHGADPLTLDECARIFETLQDKYYEEYRLADRADLAVAIVYPLVKDYFKDWHPLEDGSYGTQIISKWKSLLENDQLLSHSSQDLSSDAFHRLMWEVWMPFVRNVVAQWQPRNCEPMVDFLDSWAHIIPVWILDNILDQLIFPKLQKEVDNWNPLTDTVPIHSWIHPWLPLMQARLEPLYSPVRSKLSSALQKWHPSDASAKLILQPWKEVLTPGSWEAFMLRNIVPKLGMCLGELVINPHQQHMDAFYWVMDWEGMISVSSLVGLLEKHFFPKWLQVLCSWLSNSPNYEEITKWYLGWKSMFSDQVLAHPSVKDKFNEALDIMNRAVSSNVGAYMQPGARENIAYLTHTERRKDFQYEAMQERREAENMAQRGIGVAASSVPMNFKDLIETKAEEHNIVFMPVIGKRHEGKQLYTFGRIVIYIDRGVVFVQGEKTWVPTSLQSLIDMAK
1	1	17	25.5	26	25	51	Rnps1 (protein, UniProt Q99M28 1-305, looked up) RNA-binding protein with …: MDLSGVKKKSLLGVKENNKKSSTRAPSPTKRKDRSDEKSKDRSKDKGATKESSEKDRGRDKTRKRRSASSGSSSTRSRSSSTSSSGSSTSTGSSSGSSSSSASSRSGSSSTSRSSSSSSSSGSPSPSRRRHDNRRRSRSKSKPPKRDEKERKRRSPSPKPTKVHIGRLTRNVTKDHIMEIFSTYGKIKMIDMPVERMHPHLSKGYAYVEFENPDEAEKALKHMDGGQIDGQEITATAVLAPWPRPPPRRFSPPRRMLPPPPMWRRSPPRMRRRSRSPRRRSPVRRRSRSPGRRRHRSRSSSNSSR
1	1	5.46	65.5	65	66	131	Rbm39 (protein, UniProt Q8VH51 2-530, looked up) RNA-binding protein 39: ADDIDIEAMLEAPYKKDENKLNSANGHEERSKKRKKSKSRSRSHERKRSKSKERKRSRDRERKKSKSRERKRSRSKERRRSRSRSRDRRFRGRYRSPYSGPKFNSAIRGKIGLPHSIKLSRRRSRSKSPFRKDKSPVREPIDNLTPEERDARTVFCMQLAARIRPRDLEEFFSTVGKVRDVRMISDRNSRRSKGIAYVEFVDVSSVPLAIGLTGQRVLGVPIIVQASQAEKNRAAAMANNLQKGSAGPMRLYVGSLHFNITEDMLRGIFEPFGRIESIQLMMDSETGRSKGYGFITFSDSECAKKALEQLNGFELAGRPMKVGHVTERTDASSASSFLDSDELERTGIDLGTTGRLQLMARLAEGTGLQIPPAAQQALQMSGSLAFGAVAEFSFVIDLQTRLSQQTEASALAAAASVQPLATQCFQLSNMFNPQTEEEVGWDTEIKDDVIEECNKHGGVIHIYVDKNSAQGNVYVKCPSIAAAIAAVNALHGRWFAGKMITAAYVPLPTYHNLFPDSMTATQLLVPSRR
